According to the supplement of paper PMC7877785:
± gives the uncertainty stated by the source.

Experiment: self-splicing fitness, log relative to wild type (ln ratio); higher = more splicing; Tetrahymena group I intron in knt gene, E. coli kanamycin selection, DiMSum; sequences stand for … in CUCUCU…GGAGGGAAAAGUUAUCAGGCAUGCACCUGGUAGCUAGUCUUUAAACCAAUAGAUUGCAUCGGUUUAAAAGGCAAGACCGUCAAAUUGCGGGAAAGGGGUCAACAGCCGUUCAGUACCAAGUCUCAGGGGAAACUUUGAGAUGGCCUUGCAAAGGGUAUGGUAAUAAGCUGACGGACAUGGUCCUAACCACGCAGCCAAGUCCUAAGUCAACAGAUCUUCUGUUGAUAUGGAUGCAGUUCACAGACUAAAUGUCGGUCGGGGAAGAUGUAUUCUUCUCAUAAGAUAUAGUCGGACCUCUCCUUAAUGGGAGCUAGCGGAUGAAGUGAUGCAACACUGGAGCCGCUGGGAACUAAUUUGUAUGCGAAAGUAUAUUGAUUAGUUUUGGAGUACUCGUGGUCG
Outline: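 Library with all eight P1ex-region intron nucleotides randomised, intron inside the knt kanamycin-resistance gene on pET-22b(+), in E. coli BL21(DE3). Cells grew overnight at 37°C or 30°C on LB agar with or without 25 μg/mL kanamycin (plus 100 μg/mL carbenicillin, 50 μM IPTG, 0.2% rhamnose), in six replicate transformations. Pooled colonies were amplicon-sequenced on Illumina HiSeq 2500. DiMSum fitness is the error-weighted combination of wild-type-normalised replicate fold changes, kanamycin versus none.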

Row | Sequence | self-splicing fitness (ln) (30 °C) | self-splicing fitness (ln) (37 °C)
1 | UAGCAGCAAUAUUACGCCGU | -2.13 ± 0.13 | -1.24 ± 0.15
2 | UAGCAGCAAUAUUACGCCUU | -0.751 ± 0.078 | -0.21 ± 0.13
3 | UAGCAGCAAUAUUACGCUAC | -2.76 ± 0.32 | -2.13 ± 0.44
4 | UAGCAGCAAUAUUACGCUAG | -2.94 ± 0.12 | -1.96 ± 0.17
5 | UAGCAGCAAUAUUACGCUUU | -1.18 ± 0.12 | -0.753 ± 0.16
6 | UAGCAGCAAUAUUACGGAGG | -3.29 ± 0.15 | -2.6 ± 0.22
7 | UAGCAGCAAUAUUACGGAUC | -3.34 ± 0.21 | -1.4 ± 0.2
8 | UAGCAGCAAUAUUACGGCAA | -0.772 ± 0.16 | 0.622 ± 0.19
9 | UAGCAGCAAUAUUACGGGGG | -3.44 ± 0.29 | -2.98 ± 0.29
10 | UAGCAGCAAUAUUACGGGUG | -0.481 ± 0.058 | -0.431 ± 0.075
11 | UAGCAGCAAUAUUACGGGUU | -3.82 ± 0.21 | -1.86 ± 0.16
12 | UAGCAGCAAUAUUACGGUAG | -1.07 ± 0.051 | -0.873 ± 0.067
13 | UAGCAGCAAUAUUACGGUGC | -2.2 ± 0.22 | -3.51 ± 0.42
14 | UAGCAGCAAUAUUACGGUUC | -3.12 ± 0.1 | -1.89 ± 0.091
15 | UAGCAGCAAUAUUACGUAGG | -1.62 ± 0.082 | -1.35 ± 0.1
16 | UAGCAGCAAUAUUACGUGGC | -4.18 ± 0.26 | -2.12 ± 0.21
17 | UAGCAGCAAUAUUACGUGUC | -3.39 ± 0.15 | -2.2 ± 0.12
18 | UAGCAGCAAUAUUACGUUCC | -3.78 ± 0.4 | 0.00366 ± 0.21
19 | UAGGAGCAAUAUUACGAAAC | -3.33 ± 0.42 | -2.28 ± 0.5
20 | UAGGAGCAAUAUUACGAAAG | – | -1.17 ± 0.23
21 | UAGGAGCAAUAUUACGAAAU | -2.12 ± 0.28 | -2.31 ± 0.42
22 | UAGGAGCAAUAUUACGAAUU | -2.72 ± 0.3 | -2.22 ± 0.48
23 | UAGGAGCAAUAUUACGAGGU | – | -2.42 ± 0.32
24 | UAGGAGCAAUAUUACGAUGA | -2.75 ± 0.26 | -1.53 ± 0.21
25 | UAGGAGCAAUAUUACGCAGC | – | -2.79 ± 0.36

Row | Sequence | self-splicing fitness (ln) (30 °C) | self-splicing fitness (ln) (37 °C)
26 | UAGGAGCAAUAUUACGCAUA | -2.01 ± 0.19 | -1.78 ± 0.17
27 | UAGGAGCAAUAUUACGCGAG | -2.32 ± 0.16 | -0.56 ± 0.13
28 | UAGGAGCAAUAUUACGCUCC | – | -2.28 ± 0.25
29 | UAGGAGCAAUAUUACGCUUC | -2.64 ± 0.35 | –
30 | UAGGAGCAAUAUUACGGAUG | -3.62 ± 0.12 | -1.69 ± 0.11
31 | UAGGAGCAAUAUUACGGAUU | -3.92 ± 0.25 | -2.98 ± 0.38
32 | UAGGAGCAAUAUUACGGCAU | -4.07 ± 0.39 | -1.5 ± 0.25
33 | UAGGAGCAAUAUUACGGCUG | -0.891 ± 0.16 | 0.65 ± 0.2
34 | UAGGAGCAAUAUUACGUUCU | -3.31 ± 0.36 | -2.54 ± 0.27
35 | UAGUAGCAAUAUUACGAAAU | -2.89 ± 0.33 | –
36 | UAGUAGCAAUAUUACGAGAG | -3.43 ± 0.24 | -2.67 ± 0.18
37 | UAGUAGCAAUAUUACGAUUG | -0.0683 ± 0.084 | -0.0425 ± 0.12
38 | UAGUAGCAAUAUUACGCAGU | -2.65 ± 0.21 | -1.02 ± 0.14
39 | UAGUAGCAAUAUUACGCCAC | – | -1.56 ± 0.4
40 | UAGUAGCAAUAUUACGCGGG | -4.02 ± 0.34 | -2.49 ± 0.39
41 | UAGUAGCAAUAUUACGCUAU | -1.34 ± 0.21 | -1.16 ± 0.25
42 | UAGUAGCAAUAUUACGCUCC | -2.38 ± 0.45 | -0.239 ± 0.45
43 | UAGUAGCAAUAUUACGGAAA | – | -1.49 ± 0.3
44 | UAGUAGCAAUAUUACGGCCA | -1.22 ± 0.26 | 0.0405 ± 0.27
45 | UAGUAGCAAUAUUACGGCGC | -1.6 ± 0.46 | -1.4 ± 0.44
46 | UAGUAGCAAUAUUACGGGUC | -4.67 ± 0.46 | -2.97 ± 0.47
47 | UAGUAGCAAUAUUACGGGUU | -3.97 ± 0.27 | -2.66 ± 0.2
48 | UAGUAGCAAUAUUACGUACC | -2.29 ± 0.37 | -1.21 ± 0.27
49 | UAGUAGCAAUAUUACGUCCG | -0.377 ± 0.21 | -0.323 ± 0.36
50 | UAGUAGCAAUAUUACGUUGC | – | -1.53 ± 0.44

Row | Sequence | self-splicing fitness (ln) (30 °C) | self-splicing fitness (ln) (37 °C)
51 | UAUAAGCAAUAUUACGACAC | -1.87 ± 0.21 | -1.05 ± 0.26
52 | UAUAAGCAAUAUUACGACAU | -1.09 ± 0.014 | -0.413 ± 0.033
53 | UAUAAGCAAUAUUACGACUC | -1.51 ± 0.14 | -0.355 ± 0.14
54 | UAUAAGCAAUAUUACGCAAU | -2.11 ± 0.13 | -2.1 ± 0.15
55 | UAUAAGCAAUAUUACGCCUA | 0.213 ± 0.12 | 0.0424 ± 0.17
56 | UAUAAGCAAUAUUACGCCUU | -1.31 ± 0.1 | -0.179 ± 0.12
57 | UAUAAGCAAUAUUACGCGCU | -0.854 ± 0.18 | 0.225 ± 0.23
58 | UAUAAGCAAUAUUACGGACA | -0.702 ± 0.11 | 0.416 ± 0.13
59 | UAUAAGCAAUAUUACGGAUA | -0.466 ± 0.13 | -0.208 ± 0.13
60 | UAUAAGCAAUAUUACGGAUC | -2.57 ± 0.15 | -1.58 ± 0.18
61 | UAUAAGCAAUAUUACGUCCU | -1.28 ± 0.11 | 0.43 ± 0.14
62 | UAUAAGCAAUAUUACGUCGA | -1.56 ± 0.14 | -0.891 ± 0.16
63 | UAUAAGCAAUAUUACGUGGG | -2.83 ± 0.14 | -2.05 ± 0.12
64 | UAUCAGCAAUAUUACGAAAG | -1.62 ± 0.12 | -1.21 ± 0.17
65 | UAUCAGCAAUAUUACGAACC | -1.66 ± 0.24 | -0.148 ± 0.38
66 | UAUCAGCAAUAUUACGAACU | -1.2 ± 0.14 | 0.231 ± 0.13
67 | UAUCAGCAAUAUUACGAAGC | -3.75 ± 0.36 | -2.09 ± 0.31
68 | UAUCAGCAAUAUUACGAUAG | -0.799 ± 0.11 | 0.204 ± 0.15
69 | UAUCAGCAAUAUUACGCCAU | -1.73 ± 0.27 | -1.55 ± 0.28
70 | UAUCAGCAAUAUUACGCCGG | -0.251 ± 0.22 | 0.843 ± 0.26
71 | UAUCAGCAAUAUUACGCGCA | -0.571 ± 0.091 | 0.506 ± 0.11
72 | UAUCAGCAAUAUUACGCGCG | 0.181 ± 0.08 | -0.0803 ± 0.1
73 | UAUCAGCAAUAUUACGCGUG | -0.43 ± 0.062 | -0.319 ± 0.075
74 | UAUCAGCAAUAUUACGGCCU | -1.64 ± 0.1 | 0.0592 ± 0.12
75 | UAUCAGCAAUAUUACGGUAG | -1.26 ± 0.083 | 0.0233 ± 0.087

Row | Sequence | self-splicing fitness (ln) (30 °C) | self-splicing fitness (ln) (37 °C)
76 | UAUCAGCAAUAUUACGGUUU | -0.764 ± 0.062 | -0.507 ± 0.07
77 | UAUCAGCAAUAUUACGUACC | -2.13 ± 0.18 | -0.91 ± 0.21
78 | UAUCAGCAAUAUUACGUAUA | -0.696 ± 0.088 | -0.258 ± 0.1
79 | UAUCAGCAAUAUUACGUCGU | -3.02 ± 0.12 | -1.6 ± 0.1
80 | UAUCAGCAAUAUUACGUGAA | -0.844 ± 0.083 | 0.371 ± 0.11
81 | UAUCAGCAAUAUUACGUGAG | 0.239 ± 0.054 | 0.101 ± 0.084
82 | UAUCAGCAAUAUUACGUGCG | -0.0936 ± 0.087 | 0.327 ± 0.11
83 | UAUCAGCAAUAUUACGUUUC | -2.67 ± 0.21 | -1.73 ± 0.22
84 | UAUGAGCAAUAUUACGAACG | -2.98 ± 0.19 | -1.13 ± 0.16
85 | UAUGAGCAAUAUUACGAAUC | – | -1.07 ± 0.26
86 | UAUGAGCAAUAUUACGAGAG | -2.42 ± 0.43 | -2.72 ± 0.38
87 | UAUGAGCAAUAUUACGCAAC | -2.22 ± 0.32 | -2.49 ± 0.44
88 | UAUGAGCAAUAUUACGCCGG | -1.7 ± 0.11 | -0.905 ± 0.19
89 | UAUGAGCAAUAUUACGCUUA | -3.19 ± 0.41 | -1.47 ± 0.26
90 | UAUGAGCAAUAUUACGGACC | -2.56 ± 0.41 | -2.43 ± 0.31
91 | UAUGAGCAAUAUUACGGCUA | -0.67 ± 0.14 | -1.16 ± 0.16
92 | UAUGAGCAAUAUUACGGUAC | -4.01 ± 0.43 | -2.66 ± 0.48
93 | UAUGAGCAAUAUUACGGUUC | -3.43 ± 0.19 | -3.82 ± 0.46
94 | UAUGAGCAAUAUUACGUAAG | – | -2.16 ± 0.19
95 | UAUGAGCAAUAUUACGUAAU | -2.35 ± 0.17 | -2.34 ± 0.35
96 | UAUGAGCAAUAUUACGUCCG | – | -2.19 ± 0.43
97 | UAUGAGCAAUAUUACGUCUG | -0.9 ± 0.13 | -0.416 ± 0.15
98 | UAUGAGCAAUAUUACGUGGU | – | -2.75 ± 0.31
99 | UAUGAGCAAUAUUACGUUGU | -4.16 ± 0.24 | -2.27 ± 0.18
